Data on 5 molecules can be found in patent publication US20050272636A1, “Treatment and diagnosis of a reproductive disorder by measuring or inhibiting interferon-gamma” (Adelaide Research & Innovation Pty Ltd., priority 2002, published 2005).

Series [1] relates to human cervical epithelial cells. The series can be described thus: Effect of IFN-γ and TGFβ on GM-CSF synthesis in human cervical epithelial cells (Example 4). The format is cell-based. As to conditions: 5.0 ng/ml recombinant human IFN-γ; 12 h; ELISA. The procedure:
Human cervical epithelial cells were cultured using a modification of the technique described by Rheinwald et al., Cell 1975 3: 33143 (1975). Cervical biopsies were obtained from consenting women undergoing hysterectomy for non-malignant gynaecological indications. All the women were pre-menopausal, but no distinction was made regarding the stage of their menstrual cycle at the time of surgery. The cervical biopsies were placed in ice-cold Hank's balanced salt solution for transport to the laboratory, washed twice in antibiotic-containing medium, and incubated overnight at 4° C. in Dulbecco's modified Eagle's medium (DMEM) containing 5 U dispase (Boehringer Mannheim). Large sheets of keratinocytes were mechanically stripped from the biopsy using sterile forceps after a subsequent 1 h incubation at room temperature. Disaggregation into single cells was facilitated by incubation in DMEM/0.25% trypsin/0.05% collagenase for 30 minutes at 37° C., and repeated aspiration using a needle and syringe. […]
Supernatant was collected 12 hours later and assayed for GM-CSF activity using a commercial human GM-CSF specific ELISA (R & D Systems) according to the manufacturer's instructions. The GM-CSF content of post-treatment supernatants were normalised to the GM-CSF content of corresponding 12 h (baseline) supernatants and expressed as a percentage of control values.
A general note: An ELISA detects its analyte on a solid surface through an enzyme-linked reagent.

The test system of series [2] is IFNγ. The series can be described thus: Inhibitors and antagonists counteracting the GM-CSF-inhibiting actions of IFNγ in uterine epithelial cells (Example 3). The following applies: for effect of TGFβ isoform on the inhibitory effect of IFNγ on GM-CSF synthesis: added in combination with IFNγ, dose-responsive, 5 ng/ml greater effect than 0.5 ng/ml. The format is cell-based, mouse. The procedure: Several inhibitors and antagonists of IFNγ were tested for their ability to counteract the GM-CSF-inhibiting actions of IFNγ in epithelial cells.
Uterine Epithelial Cell Cultures. Uterine epithelial cells prepared by pancreatin-trypsin digest as previously described (Robertson et al., (1992) Biol. Reprod. 46:1069-1079) were pooled from 4-6 estrous adult C57B1/6×CBA F1 female mice and plated in 1 ml culture wells (Nunc, Roskilde, Germany) at 1-2×10^5 cells per ml in 500 μl of RPMI containing 10% FCS and streptomycin (RPMI-FCS). Penicillin was omitted from culture media except where specified. After 4 h incubation at 37° C. in 5% CO2 to allow cell adherence, a further 500 μl of cytokines or antibodies in RPMI-FCS, or RPMI-FCS alone, were added. Cytokine treatments included recombinant mouse interferon-γ (rmIFNγ; R&D Systems), recombinant human transforming growth factor β1 (rhTGFβ1, R&D Systems), rhTGFβ2 (R&D Systems), rhTGFβ3 (OSI Pharmaceuticals). Antibody treatments included goat anti-mouse IFNγ receptor 1 (αIFNγR; R&D Systems AF1026) and hamster anti-mouse IFNγ (αIFNγ; R&D Systems MAB4851). Culture supernatants were collected and replaced with fresh complete RPMI-FCS alone at 16 hours, then collected again 24 hours later, at which time adherent cells were quantified as previously described (Robertson et al., (1992) Biol. Reprod. 46:1069-1079). The GM-CSF content of 24 h supernatants was determined by GM-CSF bioassay or immunoassay. All treatments were performed in duplicate or triplicate.
GM-CSF bioassay and immunoassay: Bioactive GM-CSF was assayed using the GM-CSF dependant cell line FD 5/12, essentially as previously described (Robertson et al., (1992) Biol. Reprod. 46:1069-1079). Cell proliferation was determined by the addition of 1 μCi of [^3H]-thymidine per well for the last 6 h of the assay. The minimal detectable amount of GM-CSF was […] The identity of the bioactivity in uterine epithelial cell cultures was confirmed using a goat polyclonal antibody to murine GM-CSF kindly provided by J. Schreurs (DNAX, Palo Alto, Calif.) as previously described (Robertson et al., (1992) Biol. Reprod. 46:1069-1079). GM-CSF immunoactivity was in some experiments measured by commercial mouse GM-CSF specific ELISA (R & D Systems) according to the manufacturer's instructions.

For series [3], the target named is T1, IFNγ (Mus musculus, UniProt P01580).
T1 construct: purchased R&D Systems, UK
T1 sequence (P01580 23-155): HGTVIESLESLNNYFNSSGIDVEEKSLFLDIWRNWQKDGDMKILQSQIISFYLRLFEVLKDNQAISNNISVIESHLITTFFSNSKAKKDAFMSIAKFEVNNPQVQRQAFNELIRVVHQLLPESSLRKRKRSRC
The series can be described thus: Penicillin inhibition of the IFNγ effect on GM-CSF production in uterine epithelial cells (Example 2). The format is cell-based. The following applies: DMEM +penicillin versus DMEM -penicillin. The procedure:
Uterine Epithelial Cell Cultures. Uterine epithelial cells prepared as previously described (Robertson et al., Biol Reprod 46:1069-1079 (1992)) were pooled from 4-6 estrous C57B1/6 or C57B1/6×Balb/c F1 mice and plated in 1 ml culture wells (Nunc, Roskilde, Germany) at 1-2×10^5 cells per ml in 500 μl of Dulbecco's modified Eagles medium containing 10% FCS, […] streptomycin sulphate and […] benzyl penicillin (DMEM +penicillin). After 4 h incubation at 37° C. in 5% CO2 to allow cell adherence, a further 500 μl of DMEM +penicillin, or DMEM +penicillin plus recombinant mouse IFNγ (rIFNγ) and/or recombinant human TGFβ1 (rTGFβ), were added. In some experiments, penicillin-free DMEM (DMEM −penicillin) was used throughout. Culture supernatants were collected and replaced with fresh medium at 16 hours, then collected again 24 hours later, at which time GM-CSF content was determined and adherent cells were quantified as previously described (Robertson et al., Biol Reprod 46:1069-1079 (1992)). […]
GM-CSF bioassay: GM-CSF was assayed using the GM-CSF dependant cell line FD 5/12, essentially as previously described (Robertson et al., Biol Reprod 46:1069-1079 (1992)). Cell proliferation was determined by pulsing with 1 μCi of [^3H]-thymidine per well for the last 6 h of the assay. […] GM-CSF production is expressed as ng GM-CSF/10^5 cells/24 h. […]

For series [4], the system named is mice. The series can be described thus: Effect of IFN-γ treatment on pregnancy outcome in mice (Example 8). The format is in vivo. As to conditions: for effect on the detrimental effects of IFN-γ on pregnancy outcome: implantation rate, viable versus resorbing fetuses, fetal and placental weight on day 18. The procedure: Mice are housed under specific pathogen-free conditions at the University of Adelaide Medical School Animal House on a 12:12 light-dark cycle, and administered food and water ad libitum. Adult Balb/c×C57B1/6 F1 females (7-10 weeks old) are synchronised into estrus by caging in close proximity to males. Estrus is identified on the basis of presence of cornified epithelial cells in vaginal smears prepared at 0900-1000 h daily and examined by phase contrast microscopy. On the day of estrus (day 0) females are caged with proven fertile Balb/k males for natural mating. The day of sighting a vaginal plug is nominated day 1 of pregnancy.
Mice are randomly allocated to one of four groups and treated as follows: Group 1 (100 ng IFN-γ) mice receive three intraperitoneal injections of […] recombinant mouse IFN-γ (rmIFN-γ, R&D Systems) in 200 μl PBS containing 1% bovine serum albumin (PBS-BSA) at 1700 h on day 0, at 1000 h on day 1 and 1700hon day 1.
Group 2 (250 ng IFN-γ) receive three injections of 250 ng rmIFN-γ according to the same time schedule.
Group 3 (control) receive three injections of PBS-BSA instead of IFN-γ according to the same time schedule.
Group 4 (comparison) Mice are mated but otherwise remain untreated.
Twenty mice per group are used to ensure statistical significance in treatment effects.
Alternatively, a transcervical delivery route for IFN-γ is used. Treatments are delivered directly into the uterine lumen with the aid of a tom-cat catheter (Sovereign, St Louis Mo.). In mated animals this requires removal of vaginal plugs using forceps to allow transcervical access. Mice are randomly allocated to one of four groups and treated as follows: the first group (100 ng IFN-γ) mice receive three transcervical injections of […] recombinant mouse IFN-γ (rmIFN-γ, R&D Systems) in 200 μl PBS containing 1% bovine serum albumin (PBS-BSA) at 1700 h on day 0, at 1000 h on day 1 and 1700 h on day 1. The second group (25 ng IFN-γ) receive three injections of 25 ng rmIFN-γ according to the same time schedule. The third group (control) receive three injections of PBS-BSA instead of IFN-γ according to the same time schedule. For comparison, a fourth group of mice are mated but otherwise would remain untreated. Twenty mice per group are used to ensure statistical significance in treatment effects.
Pregnant females are sacrificed by cervical dislocation at 1000 h -1200 h on day 18 of gestation. The intact uterus of each female is removed and total, viable and resorbing implantation sites counted. Each viable fetus is dissected from the amniotic sac and umbilical cord, and fetuses and placentae weighed. Placental tissues are fixed in paraformaldehyde and processed for histological staining of paraffin sections, using Masson's trichrome stain.

Turning to “IFN-γ: recombinant human IFN-γ (R & D Systems), used on human cervical epithelial cells in Example 4”, the “effect of IFN-γ on GM-CSF synthesis” value in series [1] is given as “inhibited GM-CSF synthesis”. For the molecule `CC1(C)S[C@@H]2[C@H](NC(=O)Cc3ccccc3)C(=O)N2[C@H]1C(=O)O` [penicillin, benzyl penicillin, reference compound], in series [2] (penicillin at 60 μg/ml), the “IFNγ concentration required to inhibit GM-CSF synthesis after addition of penicillin” value was at least 2.5 ng/mL and the “effect of penicillin on the GM-CSF inhibiting activity of IFNγ” value is listed as “antagonised the GM-CSF inhibiting activity of IFNγ”. Also, the “ability of penicillin to inhibit the effect of IFNγ on GM-CSF production” value in series [3] is reported as “inhibit the effect of IFNγ”.

B1: rhTGFβ3: recombinant human TGFβ3 (OSI Pharmaceuticals) (protein, UniProt P10600 301-412, looked up)
Transforming growth factor …: ALDTNYCFRNLEENCCVRPLYIDFRQDLGWKWVHEPKGYYANFCSGPCPYLRSADTTHSTVLGLYNTLNPEASASPCCVPQDLEPLTILYYVGRTPKVEQLSNMVVKSCKCS
modifications: Transforming growth factor beta-3
Consider B1, for which the “effect on the detrimental effects of IFN-γ on pregnancy outcome” value in series [4] is listed as “reverses the detrimental effects of IFN-γ”. Also, the “effect of TGFβ isoform on the inhibitory effect of IFNγ on GM-CSF synthesis” value in series [2] is listed as “counteracted the inhibitory effect”.

B2: IFN-γ: recombinant human IFN-γ (R & D Systems), used on human cervical epithelial cells in Example 4 (protein, UniProt P01579 24-161, looked up)
Interferon gamma: QDPYVKEAENLKKYFNAGHSDVADNGTLFLGILKNWKEESDRKIMQSQIVSFYFKLFKNFKDDQSIQKSVETIKEDMNVKFFNSNKKKRDDFEKLTNYSVTDLNVQRKAIHELIQVMAELSPAAKTGKRKRSQMLFRG
As for B2, the “effect of IFN-γ on pregnancy outcome” value in series [4] (peritoneal cavity or uterine lumen, day of estrus and day 1, assessed day 18) is given as “impairs pregnancy outcome”.

B3: rhTGFβ2: recombinant human TGFβ2 (R&D Systems) (protein, UniProt P61812 303-414, looked up)
Transforming growth factor …: ALDAAYCFRNVQDNCCLRPLYIDFKRDLGWKWIHEPKGYNANFCAGACPYLWSSDTQHSRVLSLYNTINPEASASPCCVSQDLEPLTILYYIGKTPKIEQLSNMIVKSCKCS
modifications: Transforming growth factor beta-2
Take B3: the “effect on the detrimental effects of IFN-γ on pregnancy outcome” value in series [4] was “reverses the detrimental effects of IFN-γ”. Also, the “effect of TGFβ isoform on the inhibitory effect of IFNγ on GM-CSF synthesis” value in series [2] is on record as “counteracted the inhibitory effect”.
